Measured values: patent US20230295310A1 (ABCELLERA BIOLOGICS, published 2023)

What was measured:
[1] = target: T1, human CD3 expressed on cells (human, UniProt P07766 23-207; P04234 22-171; P09693 23-182); test: flow cytometry, 25 nM
T1 construct: whole, on cells; CD3 complex on Jurkat cells and on human primary T cells
Summary of the method: (§1)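 Binding readout: MFI divided by isotype-control MFI (fold over isotype), positive at ≥10. Cells were stained with 25 nM antibody, 30 min, 4° C, in PBS/2% FBS before flow cytometry.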

[2] = target: T2, cynomolgus monkey CD3 expressed on primary T cells (cynomolgus monkey, UniProt Q95LI5 22-198; Q95LI8 22-171; Q95LI7 23-181); test: flow cytometry, 25 nM, cyno primary T cells
T2 construct: whole, on cells; CD3 complex on purified cynomolgus monkey T cells; also called cyno CD3
T2 sequence (Q95LI5 22-198, chain 1 of 3): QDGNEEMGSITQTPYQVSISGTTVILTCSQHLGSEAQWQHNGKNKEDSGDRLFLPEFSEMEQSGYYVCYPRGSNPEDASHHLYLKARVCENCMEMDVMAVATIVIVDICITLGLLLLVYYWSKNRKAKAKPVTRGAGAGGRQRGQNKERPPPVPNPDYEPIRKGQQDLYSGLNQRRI
T2 sequence (Q95LI8 22-171, chain 2 of 3): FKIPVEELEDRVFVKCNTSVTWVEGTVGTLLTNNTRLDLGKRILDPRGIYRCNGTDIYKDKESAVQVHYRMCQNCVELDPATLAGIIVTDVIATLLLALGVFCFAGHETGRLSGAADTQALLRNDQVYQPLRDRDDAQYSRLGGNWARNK
T2 sequence (Q95LI7 23-181, chain 3 of 3): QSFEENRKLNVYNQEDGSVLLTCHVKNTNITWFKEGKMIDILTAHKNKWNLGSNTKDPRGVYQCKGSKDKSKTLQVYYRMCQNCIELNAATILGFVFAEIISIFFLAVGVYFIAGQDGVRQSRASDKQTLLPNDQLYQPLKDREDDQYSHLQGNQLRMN
Summary of the method: as §1

T1 sequence (P07766 23-207, chain 1 of 3): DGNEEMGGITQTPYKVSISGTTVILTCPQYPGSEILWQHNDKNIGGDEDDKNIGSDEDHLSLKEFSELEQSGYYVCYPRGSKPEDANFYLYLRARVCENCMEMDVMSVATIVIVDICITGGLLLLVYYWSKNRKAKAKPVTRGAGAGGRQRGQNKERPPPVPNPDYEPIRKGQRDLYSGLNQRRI
T1 sequence (P04234 22-171, chain 2 of 3): as the sequence (Q95LI8 22-171, chain 2 of 3) above, with V5I, K15N, V20I, T32S, N33D, N34I, A64T, N74S, L83V, R141H counted along it
T1 sequence (P09693 23-182, chain 3 of 3): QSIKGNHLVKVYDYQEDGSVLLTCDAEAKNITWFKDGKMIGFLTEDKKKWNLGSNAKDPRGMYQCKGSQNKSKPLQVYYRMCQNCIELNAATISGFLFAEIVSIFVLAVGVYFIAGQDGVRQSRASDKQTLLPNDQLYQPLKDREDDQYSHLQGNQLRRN

Row | Binder | Human primary T Cell Binding (FOI) [1] | Jurkat Cell Binding (FOI) [1] | binding result [2]
1 | mAb 137 (antibody, V domains shown) VH: QVQLVESGGGVVQPGRSLRLSCAASGFTFSTYGMHWVRQAPGKGLEWVAVIWYDGSHKYYADSVKGRFTISRDNSKKTLYLQMNSLRAEDTGIYYCARTGISGNMSYFYFDHWGQGILVTVSS VL: not shown | 158 FOI | 151 FOI | no binding (tested: FOI >=10 = positive)
2 | mAb 136 (antibody, V domains shown) VH: QVQLVESGGGVVQPGRSLRLSCAASGFTFSIYGMHWVRQAPGKGLEWVAVIWHDGSNKYYADSVKGRFTISRDNSKNTLYLQMNSLRAEDTAVYYCARTGITGTKAYFYFDYWGQGTLVTVSS VL: not shown | 86 FOI | 90.9 FOI | no binding (tested: FOI >=10 = positive)
3 | mAb 142 (antibody, V domains shown) VH: QVQLVESGGGVVQPGRSLRLSCAASGFTFSSYGMHWVRQAPGKGLEWVAVIWYDGSNKYYADSVKGRFTISRDNSKNTLYLQMNSLRAEDTAVYYCARTGITGTTAYFYFDSWGQGTLVTVSS VL: not shown | 59.6 FOI | 65.5 FOI | no binding (tested: FOI >=10 = positive)
4 | mAb 163 (antibody, V domains shown) VH: EVQLVESGGGLVKTGGSLRLSCVASGFSFKKAWMNWVRQVPGKGLEWVGRIKRNTDGGTADYAAPVKGRFTLSRDDSKKTLFLQMNSLKTEDTAVYYCTTLDSSSYYVGYYYMDVWGKGTTVTVSS VL: DIQMTQSPSSVSASVGDRVIITCRASQDINNWLAWYQQKPGKAPKLLIYTASSLQSGVPSRFSGSGSGTDFTLTIGSLQPEDFATYYCQQAHSLPITFGQGTRLEIK | 278 FOI | 118 FOI | no binding (tested: FOI >=10 = positive)
5 | mAb 129 (antibody, V domains shown) VH: EVQLVESGGDLVKTGGSLRLSCVASGFSFKKAWMNWVRQAPGKGLEWVGRIKRNTDGGATDYAAPVKDRFTLSRDDSKNTLYLQMNSLKTEDTAVYYCTTLDSSSWYVGYYYMDVWGKGTTVTVSS VL: DIHMTQSPSSVSASLGDRVTFTCRASQDINNWLAWYQQKPGKAPRLLIYTASSLQSGVPSRFSGSGSGTDFTLTISSLQPDDFATYYCQQAHSLPITFGQGTRLGIE | 169 FOI | 157 FOI | no binding (tested: FOI >=10 = positive)
6 | mAb 130 (antibody, V domains shown) VH: EVQLVESGGGLVKTGGSLRLSCVASGFSFKKAWMNWVRQAPGKGLEWVGRIKRNSDGGATDYAAPVKDRFTLSRDDSKNTLYLQMNSLKTEDTAVYYCTTLDSSSWYVGYYYMDVWGKGTTVTVSS VL: DIHMTQSPSSVSASLGDRVTFTCRASQDINNWLAWYQQRPGKAPKLLIYTASSLQSGVPSRFSGSGSGTDFTLTISSLQPEDFATYYCQQAHSLPITFGQGTRLGIK | 165 FOI | 155 FOI | no binding (tested: FOI >=10 = positive)
7 | mAb 127 (antibody, V domains shown) VH: EVQLVESGGGLVKTGGSHRLSCVASGFSFKKAWMNWVRQAPGKGLEWVGRIKRNSDGGTTDYAAPVKGRFILSRDDSKNTLYLQMNSLKTEDTAVYYCTTLDSSSWYVGYYYMDVWGKGTTVTVSS VL: DIQMTQSPSSVSASVGDRVTITCRASQDINNWLAWYQQKPGKAPKILIYTASNLQSGVPSRFSGSGSGTDFTLTISTLQPEDFATYFCQQAHGLPITFGQGTRLEIK | 172 FOI | 155 FOI | no binding (tested: FOI >=10 = positive)
8 | mAb 169 (antibody, V domains shown) VH: EVQLVESGGGLVKTGGSLRLSCVASGFSFKKAWMNWVRQAPGKGLEWVGRIKRNTDGGTADYAAPVKGRFTLSRDDSKKTLFLQMNSLKTEDTAVYYCTTLDSSSYYVGYYYMDVWGKGTTVTVSS VL: DIQMTQSPSSVSASVGDRVIITCRASQDINNWLAWYQQKPGKAPKLLIYTASSLQSGVPSRFSGSGSGTDFILTIGSLQPEDFATYYCQQAHSLPITFGQGTRLEIK | 264 FOI | 173 FOI | no binding (tested: FOI >=10 = positive)
9 | mAb 164 (antibody, V domains shown) VH: EVQLVESGGGLVKTGGSLRLSCVASGFSFKKAWMNWVRQAPGKGLEWVGRIKRNTDGGTADYAAPVKGRFTLSRDDSKKTLFLQMNSLKTEDTAVYYCTTLDSSSYYVGYYYMDVWGKGTTVTVSS VL: DIQMTQSPSSVSASVGDRVTITCRASQDIKNWLAWYQQKPGKAPKLLIYTASSLQSGVPSRFSGSGSGTDFTLTIGSLQPEDFATYYCQQAHSLPITFGQGTRLEIK | 237 FOI | 137 FOI | no binding (tested: FOI >=10 = positive)
10 | mAb 166 (antibody, V domains shown) VH: EVQLVESGGGLVKTGGSLRLSCVASGFSFKKAWMNWVRQAPGRGLEWVGRIKRNTDGGTTDYAAPVKGRFTLSRDDSKNMLYLQMNSLKTEDTAVYYCTTLDSSSLYVGYYYMDVWGKGTTVTVSS VL: DIQMTQSPSSVSASVGDRVTITCRASQDINNWLAWYQQKPGKAPKLLIYTASSLQSGVPSRFSGSGSGTDFTLTISSLQPEDFATYFCQQAHSLPITFGQGTRLEIT | 266 FOI | 159 FOI | no binding (tested: FOI >=10 = positive)
11 | mAb 165 (antibody, V domains shown) VH: EVQLVESGGGLVKTGGSLRLSCVASGFSFKKAWMNWVRQAPGKGLEWVGRIKRNTDGGTADYAAPVKGRFTLSRDDSKRTLYLQMNSLKTEDTAVYYCTTLDSSSRYVGYYYMDVWGKGTTVTVSS VL: DIQMTQSPSSVSASVGDRVIITCRASQDINNWLAWYQQKPGKVPKLLIYTASSLQSGVPSRFSGSGSGTDFTLTIGSLQPEDFATYYCQQAHSLPITFGQGTRLEIK | 241 FOI | 154 FOI | no binding (tested: FOI >=10 = positive)
12 | mAb 128 (antibody, V domains shown) VH: EVQLVESGGGLVQPGRSLRLSCAASGFTFDDYTMHWVRQAPGKGLEWVSGISWNSGSIGYADSVKGRFTISRDNAKNSLYLQMNSLRAEDTALYYCAKDSSGYGYYYYYSMDVWGKGTTVTVSS VL: EIVMTQSPATLSVSPGERATLSCRASQSVSSNLAWYQQKPGQAPRLLIYGASTRATGIPARFSGSGSGTEFTLTISSLQSEDFAVYYCQLYYNWPHFGQGTRLAIK | 101 FOI | 97.1 FOI | no binding (tested: FOI >=10 = positive)
13 | mAb 119 (antibody, V domains shown) VH: EVQLVESGGGLVQPGRSLRLSCAASGFTFDDYTMHWVRQAPGKGLEWVSGISWNSGSIGYADSVKGRFTISRDNAKNSLYLQMNSLRAEDTALYYCSKDSSGYGYYLNYSLDVWGKGTTVTVSS VL: EIVMTQSPATLSVSPGERATLSCRASQSVSNLAWYQQKPGQAPRLLIYGASTRATGIPARFSGSGSGTEFTLTISSLQSEDFAVYYCQQYNNWPHFGQGTRLQIK | 95.4 FOI | 90.4 FOI | no binding (tested: FOI >=10 = positive)
14 | mAb 126 (antibody, V domains shown) VH: EVQLVESGGGLVQPGRSLRLSCAASGFTFNDYTMHWVRQVPGKGLEWVSGISWNSGSIDYADSVKGRFTISRDNAKNSLYLQMNSLRAEDTALYYCAKDSSGYGYYYYYYMDVWGKGTTVTVSS VL: EIVMTQSPATLSVSPGERATLSCRASQSVSINLAWYQQKPGQAPRLLIYGASTRATGIPARFSGSGSGTEFTLTISSLQSEDFAVYYCQLYHNWPHFGQGTRLEIK | 97.6 FOI | 97 FOI | no binding (tested: FOI >=10 = positive)
15 | mAb 118 (antibody, V domains shown) VH: EVQLVESGGGLVQPGRSLRLSCAASGFTFDDYTMHWVRQAPGKGLEWVSGISWNSGSIGYADSVKGRFTISRDNAKNSLYLQMNSLRAEDTALYYCSKDSSGYGYYLNYSLDVWGKGTTVTVSS VL: not shown | 84.7 FOI | 83.8 FOI | no binding (tested: FOI >=10 = positive)
16 | mAb 160 (antibody, V domains shown) VH: EVQLVESGGGLVQPGRSLRLSCAVSGFTFNDYTMHWVRQVPGKGLEWVSGISWNSGSIGYADSVKGRFTISRDNAKNSLYLQMNSLRAEDTALYFCAKDSSGYGHYYYYYMDVWGRGTTVTVSS VL: EIVMTQSPATLSVSPGERATLSCRASQSVRKNLAWYQQKPGQAPRLLIYGASTRATGIPARFSGSGSGTEFTLTISSLQSEDFAVYYCQLYNNWPHFGQGTRLEIK | 169 FOI | 115 FOI | no binding (tested: FOI >=10 = positive)
17 | mAb 162 (antibody, V domains shown) VH: EVQLVESGGGLVQPGRSLRLSCAASGFTFDNYAMHWVRQAPGKGLEWVSGISWNSGSIGYADSVKGRFTISRDNAKNSLYLELNSLRAEDTALYYCAKDSSGYGYYYNYYMDVWGKGTTVTVSS VL: EIVMTQSPATLSVSPGERATLSCRASQSVRSNLAWYQQKPGQAPRLLIYGASTRATGIPAKFSGSGSGTEFTLTISSLQSEDFAVYYCQYYYNWPHFGQGTRLEIK | 160 FOI | 111 FOI | no binding (tested: FOI >=10 = positive)
18 | mAb 159 (antibody, V domains shown) VH: EVQLVESGGGLVQPGRSLRLSCAASGFTFNGYTMHWVRQVPGKGLEWVSGISWNSGSVGYADSVKGRFTISRDNAKNSLFLQMNSLRAEDTALYYCAKDSSGYGHYYYYYMDVWGKGTTVTVSS VL: EIVMTQSPATLSVSPGERATLSCRASQSVRNNLAWYQQKPGQAPRLLIYGASTRATGIPARFSGSGSGTEFTLTISSLQSEDFALYYCQLYNNWPHFGQGTRLEIK | 171 FOI | 125 FOI | no binding (tested: FOI >=10 = positive)
